In patent publication US20130288389A1:

Columns and labels:
Experiment in all cases: cell-based or functional assay
[1] = target: PrP^Sc of 263K scrapie-infected Syrian golden hamsters (Syrian golden hamster) (UniProt P04273)
[2] = target: human sporadic CJD (sCJD) brain homogenate PrP-res (human) (UniProt P04156)
[3] = target: sheep ARQ scrapie brain homogenate PrP-res (sheep) (UniProt P23907)

Q: Which results are given for monoclonal antibody 15B3?
A: IP-RT-QuIC (ThT fluorescence): lowest brain dilution detected in human plasma (dilution of brain tissue) [1]: 1e-10; IP-RTQ speed and sensitivity with higher 15B3 content on beads (fold higher 15B3 on beads) [1]: 12; eQuIC: lowest PrP-res amount detected in 0.5 ml human cerebrospinal fluid [2]: 10 ag; eQuIC: lowest PrP-res amount detected in 0.5 ml human plasma [2]: 10 ag; eQuIC ("20×" 15B3 beads): lowest PrP-res amount detected in 0.5 ml plasma [3]: 100 ag
